T1: RIFIN (PF3D7_1040300) V2 domain, His-tagged (Plasmodium falciparum 3D7, UniProt Q8IJ06 184-328)
T1 construct: RIFIN PF3D7_1040300 (RIF1) of Plasmodium falciparum 3D7, variable domain 2 (V2); PDB 7JZI holds the V2 domain of this RIFIN; also called RIF1; source: Expi293F or Expi293 GnTI- cells, transfected
T1 sequence: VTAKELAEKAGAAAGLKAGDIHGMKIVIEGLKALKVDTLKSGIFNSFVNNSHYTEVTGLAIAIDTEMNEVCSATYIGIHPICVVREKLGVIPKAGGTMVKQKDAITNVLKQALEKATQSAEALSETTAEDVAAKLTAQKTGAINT


Columns and labels:
[1] = target: RIFIN (co-IP of the LAIR1 mutation series, Fig. 2c) (Plasmodium falciparum 3D7); experiment: co-IP; conditioned media incubated with protein A resin for one hour at room temperature; Fc-tagged RIFIN or LAIR1 pulled down, partner without Fc co-pulled down; SDS-PAGE, Coomassie blue, bands quantified with ImageJ
[2] = target: RIFIN (co-IP of the LAIR1 mutation series, Fig. 2c); experiment: co-immunoprecipitation (Protein A Co-IP, SDS-PAGE band quantification); settings: LAIR1 Fc tag; RIFIN-V2 MBP tag; n = 3 independent measurements; parent: est. 3.0; read off a plot
[3] = target: T1, RIFIN (PF3D7_1040300) V2 domain, …; experiment: BLI; fortéBio Octet Red384; His-tagged RIFIN V2 domain immobilised on Ni-NTA biosensors, dipped into LAIR1 or MGD21 in a twofold concentration series; global fit, 1:1 Langmuir model; settings: both partners purified

Molecule	fold increase in affinity over native LAIR1 [1]	other: % pulldown vs MGD21 (% of MGD21 LAIR1 pulldown) [2]	also measured
LAIR1 N153S (receptor)	10 fold		
LAIR1 T151L (receptor)	10 fold		
native human LAIR1 (from UniProt Q6GTX8) T151L; N153S		66	
native human LAIR1 (from UniProt Q6GTX8) T151L; N153S; A161T; P190S; P191R		58	
native human LAIR1 (from UniProt Q6GTX8) T151L; N153S; P190S; P191R		62	
native human LAIR1 (receptor, N-linked glycosylation at N153 (MGD21 numbering), Leukocyte-associated immunoglobulin-like receptor 1 (LAIR1), human, unmutated; Probably the same limits as the MGD21 LAIR1 ectodomain; also called hLAIR1; unmutated (native) LAIR1; source: Expi293F or Expi293 GnTI- cells, transfected) QEEDLPRPSISAEPGTVIPLGSHVTFVCRGPVGVQTFRLERDSRSTYNDTEDVSQASPSESEARFRIDSVREGNAGLYRCIYYKPPKWSEQSDYLELLVKE			Kd [3]: > 1000 nM

Reference: publication PMC8270905, “Structural basis of LAIR1 targeting by polymorphic Plasmodium RIFINs” (Nature Communications, 2021)
